Laboratory results: publication doi:10.1101/2025.06.12.659315, “Structural Basis for Cas9-Directed Spacer Acquisition in Type II-A CRISPR-Cas Systems” (bioRxiv, 2025)

T1: Enterococcus faecalis Cas1-Cas2 integrase complex (Cas1_(4)-Cas2_(2) hexamer) (Enterococcus faecalis, UniProt A0A3N3GDE4 1-288; A0A3N3FLR9 1-109)
T1 construct: Cas1 of the Enterococcus faecalis type II-A CRISPR-Cas system, full length; as the chain of m3; Cas2 of the Enterococcus faecalis type II-A CRISPR-Cas system, full length; as the chain of m4; Complex formed beforehand; used as one partner in the gel filtration and DNA cleavage assays; also called Cas1-Cas2 hexamer; Cas1-Cas2 complex; source: E. coli BL21 Star (DE3); tag-cleaved Cas1 and Cas2 …
T1 sequence (looked up) 1: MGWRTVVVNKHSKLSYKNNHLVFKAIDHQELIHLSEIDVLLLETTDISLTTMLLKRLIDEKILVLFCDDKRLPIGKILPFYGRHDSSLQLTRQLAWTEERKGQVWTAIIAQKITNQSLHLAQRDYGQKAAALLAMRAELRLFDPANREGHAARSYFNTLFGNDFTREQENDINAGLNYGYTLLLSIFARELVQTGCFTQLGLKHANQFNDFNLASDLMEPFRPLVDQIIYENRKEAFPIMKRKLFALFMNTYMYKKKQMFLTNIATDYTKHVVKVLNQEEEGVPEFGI
T1 sequence (looked up) 2: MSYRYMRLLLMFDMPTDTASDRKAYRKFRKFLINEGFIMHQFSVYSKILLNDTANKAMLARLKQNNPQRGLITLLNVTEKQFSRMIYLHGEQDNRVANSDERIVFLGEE

B1: Enterococcus faecalis Cas1 (enzyme, UniProt A0A3N3GDE4 1-288, looked up)
chain: T1 sequence (looked up) 1
notes: Cas1 of the Enterococcus faecalis type II-A CRISPR-Cas system, full-length gene amplified from E. faecalis genomic DNA; Cas1 was purified together with Cas2 (mixed 2:1) before use; also called EfaCas1; Cas1 dimer; source: E. coli BL21 Star (DE3), purified (Ni-NTA, SUMO protease cleavage, Superdex 200 SEC with Cas2)
B2: Enterococcus faecalis Csn2 (natural protein, UniProt C7UDU4 1-219, looked up)
chain: MRVNFSLLEEPIEIEKATFLTIKDVQSFAHLVKLIYQYDGENELKLFDAQQKGLKPTELFVVTDILGYDVNSAATLKLIYGDLEAQLNDKPEVKSMIEKLTGTISQLIGYELLEHEMDLEEDGIIVQELFKALGIKIETTSDTIFEKVMEITQVHRYLSKKKLLIFINACTYLTEDEVQQVVEYISLNNVDVLFLEQRVVQNRFQYILDENFYLSYEKA
notes: Csn2 of the Enterococcus faecalis type II-A CRISPR-Cas system, full-length gene amplified from E. faecalis genomic DNA; Homotetramer ring with a central channel for dsDNA; also called EfaCsn2; Csn2 tetramer; source: E. coli BL21 Star (DE3), purified (Ni-NTA, TEV cleavage, Superdex 200 SEC); not shown: His6, N-terminal, cleaved; MBP, N-terminal, cleaved
B3: Enterococcus faecalis Cas2 (natural protein, UniProt A0A3N3FLR9 1-109, looked up)
chain: T1 sequence (looked up) 2
notes: Cas2 of the Enterococcus faecalis type II-A CRISPR-Cas system, full-length gene amplified from E. faecalis genomic DNA; Cas2 was purified together with Cas1 (Cas1:Cas2 mixed 2:1) before use; also called EfaCas2; Cas2 dimer; source: E. coli BL21 Star (DE3), purified (Ni-NTA, SUMO protease cleavage, Superdex 200 SEC with Cas1)

How the values were obtained:
[1] = target: the molecule itself; experiment: cryo-EM structure; preassembled Cas9/RNA-Csn2-Cas1-Cas2 supercomplex incubated with a 59-bp PAM-containing dsDNA at 4 °C for 30 min; Cas9-containing prespacer catching complex, State I 2.96 Å and State II 3.01 Å
[2] = target: T1, Enterococcus faecalis Cas1-Cas2 …; experiment: SEC; analytical SEC, Superdex 200 Increase 10/300 GL, 20 mM HEPES pH 7.5, 250 mM NaCl; Cas9/RNA, Csn2 and Cas1-Cas2 mixed; fractions analysed by SDS-PAGE (Coomassie); conditions: both partners purified
[3] = target: the molecule itself; experiment: cryo-EM structure; apo-state Cas9/RNA-Csn2-Cas1-Cas2 supercomplex, assembled from purified proteins and purified by SEC in 20 mM HEPES pH 7.5, 250 mM NaCl; 3.9 Å

Row | Binder | stoichiometry N [1] | binding result [2] | stoichiometry N [3]
1 | B1 | 2 | – | –
2 | B2 | 4 | binds | –
3 | B3 | – | – | 2
